Experimental data from patent US20220119506A1 (NOVOBIND LIVESTOCK THERAPEUTICS, published 2022).

T1: PirB (Vibrio parahaemolyticus)
T1 construct: also called JHE-like toxin PirB-like
T1 chain: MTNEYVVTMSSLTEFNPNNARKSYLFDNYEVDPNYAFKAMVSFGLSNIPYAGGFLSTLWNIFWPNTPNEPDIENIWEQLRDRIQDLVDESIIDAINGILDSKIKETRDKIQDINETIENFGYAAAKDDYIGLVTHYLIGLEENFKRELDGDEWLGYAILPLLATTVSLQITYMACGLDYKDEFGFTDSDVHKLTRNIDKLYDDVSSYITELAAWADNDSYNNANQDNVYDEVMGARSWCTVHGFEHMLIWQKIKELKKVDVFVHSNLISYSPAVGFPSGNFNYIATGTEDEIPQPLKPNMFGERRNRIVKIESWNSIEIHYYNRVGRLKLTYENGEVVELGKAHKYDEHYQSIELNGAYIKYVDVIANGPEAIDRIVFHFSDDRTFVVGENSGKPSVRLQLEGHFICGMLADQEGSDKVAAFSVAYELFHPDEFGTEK


Biological target: T1, PirB
Assay: phage ELISA, antigen-coated wells

Row | Binder | binding above PBS-coated wells
1 | NBX0852 (VHH, on phage in the phage ELISA) VHH: QVQLQESGGGLVQAGGSLRLSCEASGRTFSSYRVGWFRQAPGKGREFVAAISATGGTTYYGDSVKGRFTISRDNAENTVSLQMNSLEPEDTAVYYCAATKGIVNYRVAGTYDAWGQGTQVTVSS | ≥ 50%
2 | NBX0614 (VHH, on phage in the phage ELISA) VHH: QVQLQQSGGGLVQAGGSLRLSCAASGSSFRSNAIGWYRQFPGKSRELIAVITRSGSTQYADSVKGRFTASRDNAKNMIYLQMNNLKLEDTAVYYCHDETMKLISVKNDYWGQGSQVTVSS | ≥ 50%
3 | NBX0627 (VHH, on phage in the phage ELISA) VHH: QVQLQQSGGGLVQAGGSLRLSCAASGSSFRSNAIGWYRQSPGKSRELIAVITRSGSTQYADSVKGRFTASRDNAKNMIYLQMNSLKPEDTAVYYCHDETMKLITGKNDYWGQGTQVTVSS | ≥ 50%
4 | NBX09005 (VHH, on phage in the phage ELISA) VHH: QVQLQESGGGLVQAGGSLRLSCAASGLTFGSYAMGWFRQAPGKEREFVAAIMRYSSRTYYTDSVKGRFTISRDNAKNTVNLQMNNLEPEDTAIYYCAAAKRLSIVTLPRQYEFWGQGTQVTVSS | ≥ 50%
5 | NBX09009 (VHH, on phage in the phage ELISA) VHH: QVQLQESGGGLVQAGGSLRLSCAASGLTFGSYAMGWFRQAPGKEREFVATIMRYSSRTYYTDSVKGRFTISRDNAKNTVNLQMNNLEPEDAAIYYCAAAKRLSIVALPRQYEFWGQGTQVTVSS | ≥ 50%
6 | NBX09010 (VHH, on phage in the phage ELISA) VHH: QVQLQQSGGGLVQAGGSLRLSCAASGLTFGSYAMGWFRQAPGKEREFVAAIMRYSSRTYYTDSVKGRFTISRDNAKNTVNLQMNNLEPEDTAIYYCAAAKRLSRVTLPREYEFWGQGTQVTVSS | ≥ 50%
7 | NBX09007 (VHH, on phage in the phage ELISA) VHH: QVQLQESGGGLVQPGGSLRLSCAASGSISSSYVMGWYRQAPGKQRDLVATITNAGNIHYGDSVKGRFTISRDNAKNTVSLQMNSLKPEDTAVYYCNARALWRAYWGQGTQVTVSS | ≥ 50%
8 | NBX09008 (VHH, on phage in the phage ELISA) VHH: QVQLQESGGGLVQAGGSLRLSCSASGRTFSVRAMGWFRQAPGKERESVAAIHQNTRTTLYADSVKGRFAISRDGTKNTVYLQMNSLKPEDTAVYYCAASDDYGLQIKEVAYKYWGQGTQVTVAS | ≥ 50%
9 | NBX0855 (VHH, on phage in the phage ELISA) VHH: QVQLQESGGGLVQPGESLRLSCAASTSGFSSYVMAWYRQAPGKQRELVASMTTGGLTNYADSVKGRFTISRDNAKNTVYLQMNSLKPEDTAAYYCNARRLWNAYWGQGTQVTVSS | ≥ 50%
10 | NBX09011 (VHH, on phage in the phage ELISA) VHH: QVQLQESGGGLVQPGESLRLSCAASTSGFSSYVMAWYRQAPGKQRELVASMTTGGLTNYADSVKGRFTISRDNAKNTVYLQMNSLKPEDTAAYYCNARRLWNAYWGQGTQVTVSS | ≥ 50%
11 | NBX0851 (VHH, on phage in the phage ELISA) VHH: QVQLQQSGGGLVQPGGSLRLSCAASGRMFSGYVMGWYRQAPGKQRELVATITNGGLTNYADSVKGRFTISRDNAKNTVYLQMNSLKPDDTAVYYCNARRLWDIYWGQGTQVTVSS | ≥ 50%
12 | NBX0857 (VHH, on phage in the phage ELISA) VHH: QVQLQQSGGGLVQPGGSLRLSCAASGRIFSGHVMGWYRQAPGKQRELVATITNGGLTNYGDSVKGRFTISRDNAKNTVYLQMNSLKPDDTAVYYCNARRLWDTYWGQGTQVTVSS | ≥ 50%
13 | NBX09002 (VHH, on phage in the phage ELISA) VHH: QVQLQESGGGLVQAGESLRLSCADSGRTSSTYDMAWFRQAPGKEREFVAAISRDGGRLSYADSVKGRFTISRDNAKNTLSLQMNSLRPEDTAVYYCAAFSIRGGLRPSYKYWGQGTQVTVSS | ≥ 50%
14 | NBX0827 (VHH, on phage in the phage ELISA) VHH: QVQLQESGGGLVQAGGSLRLSCAASGSISSSFVMGWYRQAPGKQRELVATITSGGSTIYADSVKGRFTVSRDNAKNTVYLQMNSLKSEDTAVYYCHARRLWNTYWGQGTQVTVSS | ≥ 50%
15 | NBX0854 (VHH, on phage in the phage ELISA) VHH: QVQLQQSGGGLVQAGGSLRISCAASGSISSAYVMGWYRQAPGTQRELVATITSGGTTNYADSVKGRFTVSRDNAKNTVYLQMNSLKPDDTAVYYCNARRLWTTYWGQGTQVTVSS | ≥ 50%
16 | NBX0831 (VHH, on phage in the phage ELISA) VHH: QVQLQESGGGLVQAGGSLRLSCSASGDAFSRYVMGWYRQAPGKQRELVATITSGGSTIYADSVKGRFTVSRDNAKNTVYLQMNSLKSEDTAVYYCHARRLWNTYWGQGTQVTVSS | ≥ 50%

Row | Binder | binding above PBS-coated wells
17 | NBX0862 (VHH, on phage in the phage ELISA) VHH: QVQLQESGGGLVQPGGSLRLSCSASGNRFSSSYVLGWYRQAPGKQRELVATVTSGGLTHYGDSVKGRFTISRDNAKNTVYLQMNSLKPEDTAVYYCNARILLTNYWGQGTQVTVSS | ≥ 50%
18 | NBX0835 (VHH, on phage in the phage ELISA) VHH: QVQLQESGGGLVQPGGSLRLSCSASGNRFSSSYVMGWYRQAPGKQRELVATVTSGGLTHFKDSVKGRFTISRDNAKNTVYLQMNSLKPEDTAVYYCNARILLTNYWGQGTQVTISS | ≥ 50%
19 | NBX0859 (VHH, on phage in the phage ELISA) VHH: QVQLQESGGGLVQPGGSLRLSCSASGNRFSSSYVMGWYRQGPGKQRELVATVTSGGMTHYGDSVKGRFTISRDNAKNTVYLHMNSLKPEDTGVYYCFARRLWDIHWGQGTQVTVSS | ≥ 50%
20 | NBX0843 (VHH, on phage in the phage ELISA) VHH: QVQLQESGGGLVQPGGSLRLSCSASGNRFSSSYVMGYYRQAPGKQRELVATVTTGGLTNYADSVKGRFTISRDNAKNTVYLQMNSLKPEDTAVYYCNARILLTNYWGQGTQVTVSS | ≥ 50%
21 | NBX0858 (VHH, on phage in the phage ELISA) VHH: QVQLQESGGGLVQAGGSLRLSCAASRRDFTTTTMAWYRQAPGKKRETVATVNTGGLTWYADFVKGRFTISRDDAVNTLLLQMDSLKPEDTAVYYCNAVLVRARGMWGQGTQVTVSS | ≥ 50%
22 | NBX09001 (VHH, on phage in the phage ELISA) VHH: QVQLQESGGGSVQPGGSLRLSCAASGSALSSNVLGWYRQAPGKQRELVATISSGGLTNYADSVKGRFTISRDNAKNTVYLQMNSLKPEDTAVYYCQSRRLFTVYWGQGTQVTVSS | ≥ 50%
23 | NBX09006 (VHH, on phage in the phage ELISA) VHH: QVQLQESGGGLVQPGGSLRLSCAASGSISGSYVMGWYRQAPGKQRELVATITSGGLTRYADSVKGRWTISRDNAKNTVYLQMNNLKLEDTAVYYCSARRIATTYWGQGTQVTVSS | ≥ 50%
24 | NBX0404 (VHH, on phage in the phage ELISA) VHH: QVQLQESGGGLVQAGDSLRLSCATSGRTFSRYTMGWFRQTPGKEREFVAAISWSGTYYTDSVKGRFTISVDNAKNTVYLQMNSLKPEDTAVYYCASGSRRLYYSSDIDYWGQGTQVTVSS | ≥ 50%
25 | NBX0626 (VHH, on phage in the phage ELISA) VHH: QVQLQQSGGGLVQAGGSLRLACAVSETTLATNAMAWYRQAQGKRREWVATISSVSSGGITNYSGSVKGRFTISRDNAKNTVFLQMNSLQPEDTAVYYCNGVRRGRSYWGQGTQVTVSS | ≥ 50%
26 | NBX09003 (VHH, on phage in the phage ELISA) VHH: QVQLQESGGGLVQPGGSLRLSCTASGSIFSLLNMGWYRQAPGKQRELVASITSRSYTNYADSVKGRFTISRDNTKNMVYLQMNSLKPEDTAVYYCNLNPADWGRLRNWGQGTQVTVSS | ≥ 50%
27 | NBX0861 (VHH, on phage in the phage ELISA) VHH: QVQLQESGGGLVQAGGSLRLSCVASGSISNSHVMGWYRQAPGKERELVATLTSGGLTHFGDSVKGRFTISRDNAKNTIYLQMNSLKVEDTAVYYCNARRLLTSMWGQGTQVTVSP | ≥ 50%
28 | NBX0864 (VHH, on phage in the phage ELISA) VHH: QVQLQESGGGLVQPGGSLRLSCAASGIISSAYVMGWYRQAPGKQRELVATITSGGTTRYADSVKGRITISRDNAKNTVLLQMNSLKPEDTAVYYCNARILLTNYWGQGTQVTVSS | ≥ 50%
29 | NBX0865 (VHH, on phage in the phage ELISA) VHH: QVQLQESGGGLVQAGGSLRLSCADSGRVFSTYVMGWYRQVPGKQRELVATITPGGLINYGDAVKGRFTISRDNAKNTVYLQMNSLKPADTAVYYCNARRLFAINWGGGTQVTVSS | ≥ 50%
30 | NBX0863 (VHH, on phage in the phage ELISA) VHH: QVQLQQSGGGLAQAGGSLRLSCAASGRTFNWYTMAWFRQAPGKEREFVAAIRLGSTVYGDSVKARFTISRDNAKSTVSLQMNSLKPEDTALYYCAVGITGDGTIQGGPYQYWGQGTQVTVSS | ≥ 50%
31 | NBX0850 (VHH, on phage in the phage ELISA) VHH: QVQLQESGGGLVQAGGSLRLSCAASGSISASYVMGWYRQTPGKQRELVATTTSGGTTRYADSVRGRFTISRDNARNTVYLQMNSLKPDDTAVYYCNARRLFLNYWGQGTQVTVSS | ≥ 50%
